{
  "source": "patent US20150368340A1",
  "about": "(US Dept. of Health and Human Services, published 2015)",
  "molecules": {"B1": {"name": "HS20 human IgG (HS20 Wt mAb) (antibody, V domains shown)", "VH": "EVQLLESGGGLVQPGGSLRLSCAASGFTFSSYAMSWVRQAPGKGLEWVSTIQKQGLPTEYADSVKGRFTISRDNSKNTLYLQMNSLRAEDTAVYYCAKNRAKFDYWGQGTLVTVSS", "VL": "DIQMTQSPSSLSASVGDRVTITCRASQSISSYLNWYQQKPGKAPKLLIYNASMLQSGVPSRFSGSGSGTDFTLTISSLQPEDFATYYCQQNRGFPLTFGQGTKVEIK", "modifications": "N-glycosylation site at residue 50 of SEQ ID NO: 16 (CDR2)", "notes": "also called HS20 IgG; HS20 mAb"}, "B2": {"name": "HN3-human Fc fusion protein (HN3-hFc) (Fc fusion, not shown: a dimerising Fc or GST)", "chain": "QVQLVQSGGGLVQPGGSLRLSCAASYFDFDSYEMSWVRQAPGKGLEWIGSIYHSGSTYYNPSLKSRVTISRDNSKNTLYLQMNTLRAEDTATYYCARVNMDRFDYWGQGTLVTVSSS", "notes": "also called HN3 human mAb"}, "B3": {"name": "HN3(VH)-PE38 immunotoxin (other)", "chain": "QVQLVQSGGGLVQPGGSLRLSCAASYFDFDSYEMSWVRQAPGKGLEWIGSIYHSGSTYYNPSLKSRVTISRDNSKNTLYLQMNTLRAEDTATYYCARVNMDRFDYWGQGTLVTVSSSAAKASGGPEGGSLAALTAHQACHLPLETFTRHRQPRGWEQLEQCGYPVQRLVALYLAARLSWNQVDQVIRNALASPGSGGDLGEAIREQPEQARLALTLAAAESERFVRQGTGNDEAGAANGPADSGDALLERNYPTGAEFLGDGGDVSFSTRGTQNWTVERLLQAHRQLEERGYVFVGYHGTFLEAAQSIVFGGVRARSQDLDAIWRGFYIAGDPALAYGYAQDQEPDARGRIRNGALLRVYVPRSSLPGFYRTSLTLAAPEAAGEVERLIGHPLPLRLDAITGPEEEGGRLETILGWPLAERTVVIPSAIPTDPRNVGGDLDPSSIPDKEQAISALPDYASQPGKPPREDLK"}, "B4": {"name": "HN3 single-domain VH displayed on phage (clone HN3) (VHH)", "VHH": "QVQLVQSGGGLVQPGGSLRLSCAASYFDFDSYEMSWVRQAPGKGLEWIGSIYHSGSTYYNPSLKSRVTISRDNSKNTLYLQMNTLRAEDTATYYCARVNMDRFDYWGQGTLVTVSS"}},
  "key": {"[1]": {"biological_target": "cell surface-associated glypican-3 (GPC3) (human) (UniProt P51654)", "assay": "co-IP of GPC3 and Wnt3a from HepG2 xenograft tumor tissue after three weeks of 20 mg/kg HS20 (mutated form); blocked partner Wnt3a (FIG. 17B)"}, "[2]": {"biological_target": "T1, recombinant human GPC3 with His tag (GPC3-his) (human, UniProt P51654 25-559, heparan sulfate chains)", "T1 construct": "range 25-559; also called GPC3 alone; purified GPC3; not shown: six-histidine tag", "assay": "ELISA on recombinant GPC3 protein (FIG. 13B)"}, "[3]": {"biological_target": "T1, recombinant human GPC3 with His tag …", "assay": "ELISA on recombinant GPC3 protein against HS molecules alone (FIG. 13B)"}, "[4]": {"biological_target": "cell surface-associated glypican-3 (GPC3) (human) (UniProt P51654)", "assay": "cell-based or functional assay"}, "[5]": {"biological_target": "T1, recombinant human GPC3 with His tag …", "assay": "ELISA, purified GPC3 coated at 1 µg/ml, HN3-hFc titrated, one-site binding fit (FIG. 4A)"}, "[6]": {"biological_target": "T2, cell surface-associated glypican-3 (GPC3) (human, UniProt P51654 25-554, two heparan sulfate (HS) chains on the C-terminal portion; GPI anchor)", "assay": "cell-based or functional assay"}, "[7]": {"biological_target": "T2, cell surface-associated glypican-3 …", "assay": "flow cytometry on G1 cells, HN3-hFc titrated, one-site binding fit (FIG. 4B)"}, "[8]": {"biological_target": "T2, cell surface-associated glypican-3 …", "assay": "cell-based or functional assay", "remark": "listed apart in the source"}, "GPC3 N-terminal fragment": {"biological_target": "T3, GPC3 N-terminal fragment (human, UniProt P51654 25-358)", "T3 construct": "domain: N-terminal fragment; also called N-terminus alone", "assay": "phage ELISA on recombinant GPC3 fragments (FIG. 5B)"}, "GPC3 C-terminal fragment": {"biological_target": "T4, GPC3 C-terminal fragment (human, UniProt P51654 359-559, limits assumed)", "T4 construct": "domain: C-terminal fragment; also called C-terminus alone", "T4 sequence (looked up)": "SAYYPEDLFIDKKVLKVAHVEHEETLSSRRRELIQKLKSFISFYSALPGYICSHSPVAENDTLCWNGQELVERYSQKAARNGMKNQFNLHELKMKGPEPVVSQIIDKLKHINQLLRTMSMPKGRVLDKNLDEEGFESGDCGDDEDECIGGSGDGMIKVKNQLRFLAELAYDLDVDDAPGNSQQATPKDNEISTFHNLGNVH", "assay": "phage ELISA on recombinant GPC3 fragments (FIG. 5B)"}},
  "data": [
    {"molecule": "HS20 Mt (HS20 IgG with the N-glycosylation site of the VL removed) (antibody)", "values": [
      {"measurement": "percent of the GPC3-Wnt3a interaction blocked", "setting": "[1]", "result": 70, "unit": "%"}
    ]},
    {"molecule": "B1", "values": [
      {"measurement": "Kd", "setting": "[2]", "result": 0.75, "unit": "nM"},
      {"measurement": "fold stronger binding than on HS alone", "setting": "[3]", "result": "≥ 1000", "unit": "fold"},
      {"measurement": "decrease in wound closure efficiency (wound healing assay, Hep3B cells, 50 µg/ml HS20)", "setting": "[4]", "result": "> 30", "unit": "%"}
    ]},
    {"molecule": "B2", "values": [
      {"measurement": "Kd", "setting": "[5]", "result": 0.64, "unit": "nM"},
      {"measurement": "cell growth inhibition (WST-8), Hep3B cells, IC50", "setting": "[6]", "result": "~50000", "unit": "ng/mL"},
      {"measurement": "cell growth inhibition (WST-8), Huh-7 cells, IC50", "setting": "[6]", "result": "~50000", "unit": "ng/mL"},
      {"measurement": "Kd", "setting": "[7]", "result": 0.15, "unit": "nM"}
    ]},
    {"molecule": "B3", "values": [
      {"measurement": "cytotoxicity IC50 (WST-8), G1 cells", "setting": "[8]", "result": 0.01, "unit": "ng/mL"},
      {"measurement": "cytotoxicity IC50 (WST-8), Hep3B cells", "setting": "[8]", "result": 0.02, "unit": "ng/mL"},
      {"measurement": "cytotoxicity IC50 (WST-8), HepG2 cells", "setting": "[8]", "result": 549, "unit": "ng/mL"},
      {"measurement": "cytotoxicity IC50 (WST-8), Huh-1 cells", "setting": "[8]", "result": 0.06, "unit": "ng/mL"},
      {"measurement": "cytotoxicity IC50 (WST-8), Huh-4 cells", "setting": "[8]", "result": "> 1000", "unit": "ng/mL"},
      {"measurement": "cytotoxicity IC50 (WST-8), Huh-7 cells", "setting": "[8]", "result": 64, "unit": "ng/mL"},
      {"measurement": "cytotoxicity IC50 (WST-8), G1 cells, molar", "setting": "[6]", "result": 0.0002, "unit": "nM"},
      {"measurement": "cytotoxicity IC50 (WST-8), Hep3B cells, molar", "setting": "[6]", "result": 0.0004, "unit": "nM"},
      {"measurement": "cytotoxicity IC50 (WST-8), HepG2 cells, molar", "setting": "[6]", "result": 10, "unit": "nM"},
      {"measurement": "cytotoxicity IC50 (WST-8), Huh-1 cells, molar", "setting": "[6]", "result": 0.0012, "unit": "nM"},
      {"measurement": "cytotoxicity IC50 (WST-8), Huh-7 cells, molar", "setting": "[6]", "result": 1.3, "unit": "nM"}
    ]},
    {"molecule": "B4", "values": [
      {"measurement": "binding result", "setting": "GPC3 N-terminal fragment", "result": "no binding"},
      {"measurement": "binding result", "setting": "GPC3 C-terminal fragment", "result": "no binding"}
    ]}
  ]
}
